What was measured:
[1] = molecular target: T1, CAR receptor (human (endogenous in A549), UniProt P78310 20-365); assay: flow cytometry on cells; as a6, but the Alexa Fluor 488-labelled Ad5.eGFP was pre-incubated with 20 µM HD5 for 45 min on ice; conditions: one partner purified
T1 construct: source: endogenous, on A549 cells
T1 sequence: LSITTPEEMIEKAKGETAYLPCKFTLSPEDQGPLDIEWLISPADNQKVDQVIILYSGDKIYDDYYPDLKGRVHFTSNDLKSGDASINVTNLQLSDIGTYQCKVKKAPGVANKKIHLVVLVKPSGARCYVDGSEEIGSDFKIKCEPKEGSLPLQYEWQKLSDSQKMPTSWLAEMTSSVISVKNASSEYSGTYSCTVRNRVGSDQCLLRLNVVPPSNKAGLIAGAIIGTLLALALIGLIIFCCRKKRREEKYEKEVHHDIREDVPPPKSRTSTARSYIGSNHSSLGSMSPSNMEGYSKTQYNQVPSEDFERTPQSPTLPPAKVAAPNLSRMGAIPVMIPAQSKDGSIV

[2] = molecular target: T1, CAR receptor; assay: flow cytometry on cells; A549 cells in PBS + 0.2% sodium azide incubated with or without 200 nM 5FK or 16FK, 45 min on ice (100 nM in the legend), then combined with Alexa Fluor 488-labelled Ad5.eGFP without defensin (virus pre-incubated with 20 µM HD5-Abu was equivalent to virus alone), 45 min on ice; conditions: one partner purified

B1: recombinant HAdV-5 fiber knob (domain or fragment)
chain: GAITVGNKNNDKLTLWTTPAPSPNCRLNAEKDAKLTLVLTKCGSQILATVSVLAVKGSLAPISGTVQSAHLIIRFDENGVLLNNSFLDPEYWNFRNGDLTEGTAYTNAVGFMPNLSAYPKSHGKTAKSNIVSQVYLNGDKTKPVTLTITLNGTQETGDTTPSAYSMSFSWDWSGHNYINEIFATSSYTFSYIAQE
notes: fiber knob, residues 387-581 of the HAdV-5 fiber; also called 5FK
fold reduction of HAdV-5 binding to cells with 5FK compared to 16FK, virus pre-incubated with HD5 [1]: 1.6 fold | fold reduction of HAdV-5 binding to cells with 5FK compared to 16FK [2]: 5.2 fold

— article PMC2891831, “Insight into the Mechanisms of Adenovirus Capsid Disassembly from Studies of Defensin Neutralization” (PLoS Pathogens, 2010)
